Results on six variants are retold here after IntAct's records for PubMed 25416956.

To fix the notation:
B1: Keratin, type II cytoskeletal 6A (Homo sapiens), P02538 (parent)
chain: MASTSTTIRSHSSSRRGFSANSARLPGVSRSGFSSVSVSRSRGSGGLGGACGGAGFGSRSLYGLGGSKRISIGGGSCAISGGYGSRAGGSYGFGGAGSGFGFGGGAGIGFGLGGGAGLAGGFGGPGFPVCPPGGIQEVTVNQSLLTPLNLQIDPTIQRVRAEEREQIKTLNNKFASFIDKVRFLEQQNKVLETKWTLLQEQGTKTVRQNLEPLFEQYINNLRRQLDSIVGERGRLDSELRGMQDLVEDFKNKYEDEINKRTAAENEFVTLKKDVDAAYMNKVELQAKADTLTDEINFLRALYDAELSQMQTHISDTSVVLSMDNNRNLDLDSIIAEVKAQYEEIAQRSRAEAESWYQTKYEELQVTAGRHGDDLRNTKQEIAEINRMIQRLRSEIDHVKKQCANLQAAIADAEQRGEMALKDAKNKLEGLEDALQKAKQDLARLLKEYQELMNVKLALDVEIATYRKLLEGEECRLNGEGVGQVNISVVQSTVSSGYGGASGVGSGLGLGGGSSYSYGSGLGVGGGFSSSSGRAIGGGLSSVGGGSSTIKYTTTSSSSRKSYKH
partner: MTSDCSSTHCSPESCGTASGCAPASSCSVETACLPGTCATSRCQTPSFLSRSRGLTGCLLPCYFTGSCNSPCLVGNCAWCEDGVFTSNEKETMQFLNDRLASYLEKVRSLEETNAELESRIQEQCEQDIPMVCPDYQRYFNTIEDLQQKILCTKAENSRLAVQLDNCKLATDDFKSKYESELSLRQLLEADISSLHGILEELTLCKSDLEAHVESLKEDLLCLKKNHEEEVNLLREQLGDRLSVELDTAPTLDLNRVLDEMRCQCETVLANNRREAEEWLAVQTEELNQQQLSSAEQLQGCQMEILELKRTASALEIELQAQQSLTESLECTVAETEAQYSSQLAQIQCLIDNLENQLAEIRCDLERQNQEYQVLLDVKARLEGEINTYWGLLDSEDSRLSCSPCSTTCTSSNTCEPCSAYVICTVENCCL
B2: Keratin, type II cytoskeletal 6A (Homo sapiens), P02538 (parent)
chain: B1 chain
partner: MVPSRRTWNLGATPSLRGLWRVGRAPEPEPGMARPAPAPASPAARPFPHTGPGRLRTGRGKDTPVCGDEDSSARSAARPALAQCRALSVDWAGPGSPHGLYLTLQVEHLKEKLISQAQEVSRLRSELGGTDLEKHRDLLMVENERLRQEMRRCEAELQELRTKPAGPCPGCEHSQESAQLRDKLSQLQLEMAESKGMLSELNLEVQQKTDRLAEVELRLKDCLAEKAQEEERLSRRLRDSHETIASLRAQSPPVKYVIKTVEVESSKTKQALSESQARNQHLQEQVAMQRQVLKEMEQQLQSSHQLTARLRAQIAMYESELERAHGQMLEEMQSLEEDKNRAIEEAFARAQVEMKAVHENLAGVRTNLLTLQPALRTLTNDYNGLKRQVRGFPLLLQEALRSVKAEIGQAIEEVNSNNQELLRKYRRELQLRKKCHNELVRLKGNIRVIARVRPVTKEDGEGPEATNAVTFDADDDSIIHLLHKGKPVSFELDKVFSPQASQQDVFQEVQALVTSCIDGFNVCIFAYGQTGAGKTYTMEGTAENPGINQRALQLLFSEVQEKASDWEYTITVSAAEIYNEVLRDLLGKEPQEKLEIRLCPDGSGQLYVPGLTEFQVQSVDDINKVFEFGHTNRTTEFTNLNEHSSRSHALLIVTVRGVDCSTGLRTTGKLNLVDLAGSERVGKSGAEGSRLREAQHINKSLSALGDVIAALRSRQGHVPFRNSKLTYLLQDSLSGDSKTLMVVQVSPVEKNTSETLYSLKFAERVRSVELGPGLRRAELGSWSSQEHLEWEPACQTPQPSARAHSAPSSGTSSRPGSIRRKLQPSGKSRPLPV
B3: Keratin, type II cytoskeletal 6A (Homo sapiens), P02538 (parent)
chain: B1 chain
partner: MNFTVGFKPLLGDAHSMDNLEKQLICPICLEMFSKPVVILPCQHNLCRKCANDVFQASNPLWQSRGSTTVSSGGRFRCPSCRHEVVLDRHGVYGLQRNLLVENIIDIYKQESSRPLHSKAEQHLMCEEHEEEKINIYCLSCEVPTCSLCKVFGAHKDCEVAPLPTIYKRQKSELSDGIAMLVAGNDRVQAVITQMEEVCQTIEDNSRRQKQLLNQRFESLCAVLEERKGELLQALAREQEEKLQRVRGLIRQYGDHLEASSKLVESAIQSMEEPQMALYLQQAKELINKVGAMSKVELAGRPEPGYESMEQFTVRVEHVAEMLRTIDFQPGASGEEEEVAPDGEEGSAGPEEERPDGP
B4: Keratin, type II cytoskeletal 6A (Homo sapiens), P02538 (parent)
chain: B1 chain

The variants in the first assay derive from B1. Particulars: with KRT40, Q6A162.
Consider MASTSTTIRSHSSSRRGFSANSARLPGVSRSGFSSVSVSRSRGSGGLGGACGGAGFGSRSLYGLGGSKRISIGGGSCAISGGYGSRAGGSYGFGGAGSGFGFGGGAGIGFGLGGGAGLAGGFGGPGFPVCPPGGIQEVTVNQSLLTPLNLQIDPTIQRVRAEEREQIKTLNNKFASFIDKVRFLEQQNKVLETKWTLLQEQGTKTVRQNLEPLFEQYINNLRRQLDSIVGERGRLDSELRGMQDLVEDFKNKYEDEINKRTAAENEFVTLKKDVDAAYMNKVELQAKADTLTDEINFLRALYDAELSQMQTHISDTSVVLSMDNNRNLDLDSIIAEVKAQYEEIAQRSRAEAESWYQTKYEELQVTAGRHGDDLRNTKQEIAEINRMIQRLRSEIDHVKKQCANLQAAIADAEQRGEMALKDAKNKLEGLEDALQKAKQDLARLLKEYQELMNVKLALDVEIPTYRKLLEGEECRLNGEGVGQVNISVVQSTVSSGYGGASGVGSGLGLGGGSSYSYGSGLGVGGGFSSSSGRAIGGGLSSVGGGSSTIKYTTTSSSSRKSYKH [A463P], for which the “effect of a mutation on the interaction” value was “disrupting interaction”.

Variants of B2 are the subject of another assay. The note with it: with kifc3_human KIFC3, Q9BVG8.
Regarding MASTSTTIRSHSSSRRGFSANSARLPGVSRSGFSSVSVSRSRGSGGLGGACGGAGFGSRSLYGLGGSKRISIGGGSCAISGGYGSRAGGSYGFGGAGSGFGFGGGAGIGFGLGGGAGLAGGFGGPGFPVCPPGGIQEVTVNQSLLTPLNLQIDPTIQRVRAEEREQIKTLNNKFASFIDKVRFLEQQNKVLETKWTLLQEQGTKTVRQNLEPLFEQYINNLRRQLDSIVGERGRLDSELRGMQDLVEDFKNKYEDEINKRTAAENEFVTLKKDVDAAYMNKVELQAKADTLTDEINFLRALYDAELSQMQTHISDTSVVLSMDNNRNLDLDSIIAEVKAQYEEIAQRSRAEAESWYQTKYEELQVTAGRHGDDLRNTKQEIAEINRMIQRLRSEIDHVKKQCANLQAAIADAEQRGEMALKDAKNKLEGLEDALQKAKQDLARLLKEYQELMNVKLALDVESATYRKLLEGEECRLNGEGVGQVNISVVQSTVSSGYGGASGVGSGLGLGGGSSYSYGSGLGVGGGFSSSSGRAIGGGLSSVGGGSSTIKYTTTSSSSRKSYKH [I462S], the “effect of a mutation on the interaction” value is listed as “disrupting interaction”.

A further assay covers variants of B2. The note with it: with kifc3_human KIFC3, Q9BVG8. This is another data set of the same source.
On to MASTSTTIRSHSSSRRGFSANSARLPGVSRSGFSSVSVSRSRGSGGLGGACGGAGFGSRSLYGLGGSKRISIGGGSCAISGGYGSRAGGSYGFGGAGSGFGFGGGAGIGFGLGGGAGLAGGFGGPGFPVCPPGGIQEVTVNQSLLTPLNLQIDPTIQRVRAEEREQIKTLKNKFASFIDKVRFLEQQNKVLETKWTLLQEQGTKTVRQNLEPLFEQYINNLRRQLDSIVGERGRLDSELRGMQDLVEDFKNKYEDEINKRTAAENEFVTLKKDVDAAYMNKVELQAKADTLTDEINFLRALYDAELSQMQTHISDTSVVLSMDNNRNLDLDSIIAEVKAQYEEIAQRSRAEAESWYQTKYEELQVTAGRHGDDLRNTKQEIAEINRMIQRLRSEIDHVKKQCANLQAAIADAEQRGEMALKDAKNKLEGLEDALQKAKQDLARLLKEYQELMNVKLALDVEIATYRKLLEGEECRLNGEGVGQVNISVVQSTVSSGYGGASGVGSGLGLGGGSSYSYGSGLGVGGGFSSSSGRAIGGGLSSVGGGSSTIKYTTTSSSSRKSYKH [N171K], for which the “effect of a mutation on the interaction” value was “disrupting interaction”.

A further assay covers variants of B2. Particulars: with kifc3_human KIFC3, Q9BVG8. The source holds these as a separate data set.
Turning to MASTSTTIRSHSSSRRGFSANSARLPGVSRSGFSSVSVSRSRGSGGLGGACGGAGFGSRSLYGLGGSKRISIGGGSCAISGGYGSRAGGSYGFGGAGSGFGFGGGAGIGFGLGGGAGLAGGFGGPGFPVCPPGGIQEVTVNQSLLTPLNLQIDPTIQRVRAEEREQIKTLNNKFASFIDKVRFLEQQNKVLETKWTLLQEQGTKTVRQNLEPLFEQYINNLRRQLDSIVGERGRLDSELRGMQDLVEDFKNKYEDEINKRTAAENEFVTLKKDVDAAYMNKVELQAKADTLTDEINFLRALYDAELSQMQTHISDTSVVLSMDNNRNLDLDSIIAEVKAQYEEIAQRSRAEAESWYQTKYEELQVTAGRHGDDLRNTKQEIAEINRMIQRLRSEIDHVKKQCANLQAAIADAEQRGEMALKDAKNKLEGLEDALQKAKQDLARLLKEYQELMNVKLALDVEIPTYRKLLEGEECRLNGEGVGQVNISVVQSTVSSGYGGASGVGSGLGLGGGSSYSYGSGLGVGGGFSSSSGRAIGGGLSSVGGGSSTIKYTTTSSSSRKSYKH [A463P], the “effect of a mutation on the interaction” value is “disrupting interaction”.

Variants of B3 are the subject of the next assay. Particulars: with tri54_human TRIM54, Q9BYV2.
Turning to MASTSTTIRSHSSSRRGFSANSARLPGVSRSGFSSVSVSRSRGSGGLGGACGGAGFGSRSLYGLGGSKRISIGGGSCAISGGYGSRAGGSYGFGGAGSGFGFGGGAGIGFGLGGGAGLAGGFGGPGFPVCPPGGIQEVTVNQSLLTPLNLQIDPTIQRVRAEEREQIKTLNNKFASFIDKVRFLEQQNKVLETKWTLLQEQGTKTVRQNLEPLFEQYINNLRRQLDSIVGERGRLDSELRGMQDLVEDFKNKYEDEINKRTAAENEFVTLKKDVDAAYMNKVELQAKADTLTDEINFLRALYDAELSQMQTHISDTSVVLSMDNNRNLDLDSIIAEVKAQYEEIAQRSRAEAESWYQTKYEELQVTAGRHGDDLRNTKQEIAEINRMIQRLRSEIDHVKKQCANLQAAIADAEQRGEMALKDAKNKLEGLEDALQKAKQDLARLLKEYQELMNVKLALDVEIPTYRKLLEGEECRLNGEGVGQVNISVVQSTVSSGYGGASGVGSGLGLGGGSSYSYGSGLGVGGGFSSSSGRAIGGGLSSVGGGSSTIKYTTTSSSSRKSYKH [A463P], the “effect of a mutation on the interaction” value is “disrupting interaction”.

Another assay covers variants of B4. The note with it: with tfp11_human TFIP11, Q9UBB9.
Chain of tfp11_human TFIP11, Q9UBB9 (Q9UBB9 whole entry): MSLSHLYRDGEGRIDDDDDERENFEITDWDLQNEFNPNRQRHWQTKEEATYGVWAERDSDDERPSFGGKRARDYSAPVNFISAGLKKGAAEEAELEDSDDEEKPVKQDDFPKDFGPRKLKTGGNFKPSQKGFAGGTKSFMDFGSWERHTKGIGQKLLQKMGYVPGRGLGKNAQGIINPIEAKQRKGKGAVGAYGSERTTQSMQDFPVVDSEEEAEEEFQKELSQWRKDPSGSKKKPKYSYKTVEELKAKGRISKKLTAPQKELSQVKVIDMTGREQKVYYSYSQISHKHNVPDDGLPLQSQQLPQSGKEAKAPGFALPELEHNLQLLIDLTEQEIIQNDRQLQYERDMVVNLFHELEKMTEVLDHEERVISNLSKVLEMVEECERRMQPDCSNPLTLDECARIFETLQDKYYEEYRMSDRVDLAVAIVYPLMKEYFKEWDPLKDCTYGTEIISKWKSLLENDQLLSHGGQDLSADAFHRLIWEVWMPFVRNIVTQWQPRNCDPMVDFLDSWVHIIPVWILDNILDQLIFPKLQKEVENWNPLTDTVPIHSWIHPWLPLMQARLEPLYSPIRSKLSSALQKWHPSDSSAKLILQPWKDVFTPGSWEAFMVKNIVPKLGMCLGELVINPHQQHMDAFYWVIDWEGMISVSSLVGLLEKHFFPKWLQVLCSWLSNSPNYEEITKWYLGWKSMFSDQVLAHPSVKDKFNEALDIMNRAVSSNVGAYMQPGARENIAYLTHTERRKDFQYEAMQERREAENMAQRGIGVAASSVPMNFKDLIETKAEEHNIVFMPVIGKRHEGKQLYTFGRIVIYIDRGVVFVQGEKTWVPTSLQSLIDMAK
MASTSTTIRSHSSSRRGFSANSARLPGVSRSGFSSVSVSRSRGSGGLGGACGGAGFGSRSLYGLGGSKRISIGGGSCAISGGYGSRAGGSYGFGGAGSGFGFGGGAGIGFGLGGGAGLAGGFGGPGFPVCPPGGIQEVTVNQSLLTPLNLQIDPTIQRVRAEEREQIKTLNNKFASFIDKVRFLEQQNKVLETKWTLLQEQGTKTVRQNLEPLFEQYINNLRRQLDSIVGERGRLDSELRGMQDLVEDFKNKYEDEINKRTAAENEFVTLKKDVDAAYMNKVELQAKADTLTDEINFLRALYDAELSQMQTHISDTSVVLSMDNNRNLDLDSIIAEVKAQYEEIAQRSRAEAESWYQTKYEELQVTAGRHGDDLRNTKQEIAEINRMIQRLRSEIDHVKKQCANLQAAIADAEQRGEMALKDAKNKLEGLEDALQKAKQDLARLLKEYQELMNVKLALDVESATYRKLLEGEECRLNGEGVGQVNISVVQSTVSSGYGGASGVGSGLGLGGGSSYSYGSGLGVGGGFSSSSGRAIGGGLSSVGGGSSTIKYTTTSSSSRKSYKH [I462S]: the “effect of a mutation on the interaction” value is recorded as “disrupting interaction”.
